Test results as given in patent US7629440.

Target: murine GM-CSF receptor (murine) (UniProt Q00941)
Test: cell-based or functional assay

Sequence of UniProt Q00941 (Q00941 30-388, chain 1 of 2): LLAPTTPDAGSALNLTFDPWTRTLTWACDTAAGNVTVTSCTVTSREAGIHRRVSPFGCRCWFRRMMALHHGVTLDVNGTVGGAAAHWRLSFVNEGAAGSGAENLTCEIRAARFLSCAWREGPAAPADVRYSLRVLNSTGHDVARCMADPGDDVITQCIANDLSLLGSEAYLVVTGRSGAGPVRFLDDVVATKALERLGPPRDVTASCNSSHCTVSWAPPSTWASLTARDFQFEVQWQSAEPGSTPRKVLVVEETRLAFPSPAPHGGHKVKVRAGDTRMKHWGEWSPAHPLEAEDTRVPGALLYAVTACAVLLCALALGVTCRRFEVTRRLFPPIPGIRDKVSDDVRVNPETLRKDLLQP
Sequence of UniProt Q00941 (P26955 23-896, chain 2 of 2, further chain): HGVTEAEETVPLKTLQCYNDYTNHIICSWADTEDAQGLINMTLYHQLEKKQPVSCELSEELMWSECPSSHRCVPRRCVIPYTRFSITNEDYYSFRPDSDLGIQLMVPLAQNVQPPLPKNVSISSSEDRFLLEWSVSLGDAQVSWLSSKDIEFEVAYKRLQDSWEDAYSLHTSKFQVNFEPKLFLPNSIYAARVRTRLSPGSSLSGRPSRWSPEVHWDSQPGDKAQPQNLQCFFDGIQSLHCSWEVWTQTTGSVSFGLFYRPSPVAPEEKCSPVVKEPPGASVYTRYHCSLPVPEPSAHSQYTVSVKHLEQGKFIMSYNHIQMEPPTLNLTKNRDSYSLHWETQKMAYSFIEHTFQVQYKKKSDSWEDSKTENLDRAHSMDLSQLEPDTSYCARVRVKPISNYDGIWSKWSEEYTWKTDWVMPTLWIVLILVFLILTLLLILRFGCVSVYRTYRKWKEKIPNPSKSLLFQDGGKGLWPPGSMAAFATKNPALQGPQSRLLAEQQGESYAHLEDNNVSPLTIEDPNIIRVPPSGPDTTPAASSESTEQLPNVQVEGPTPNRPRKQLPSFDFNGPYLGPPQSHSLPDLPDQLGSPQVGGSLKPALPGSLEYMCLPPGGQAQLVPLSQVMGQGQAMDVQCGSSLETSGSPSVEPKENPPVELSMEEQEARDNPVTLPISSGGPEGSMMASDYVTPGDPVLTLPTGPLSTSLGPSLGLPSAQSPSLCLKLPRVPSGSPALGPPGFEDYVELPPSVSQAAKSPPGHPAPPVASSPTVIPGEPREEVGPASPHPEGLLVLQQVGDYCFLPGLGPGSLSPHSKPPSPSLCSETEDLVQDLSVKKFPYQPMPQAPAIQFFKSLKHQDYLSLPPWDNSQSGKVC

“murine GM-CSF fused to the S. cerevisiae Gas1 GPI modification signal sequence (GPI-GM-CSF) (from UniProt P01587 18-141; P22146 470-528) (other; the values are: proliferation increase vs soluble GM-CSF)” showed a proliferation of the GM-CSF dependent FDC-P1 cell line (Biotrak BrdU cell proliferation ELISA), 10 ng per well of 25%.
